The chains are these.
B1: K315A: A2aR point mutant (protein, UniProt P29274 1-412, looked up, variant K315A)
Adenosine receptor A2a: MPIMGSSVYITVELAIAVLAILGNVLVCWAVWLNSNLQNVTNYFVVSLAAADIAVGVLAIPFAITISTGFCAACHGCLFIACFVLVLTQSSIFSLLAIAIDRYIAIRIPLRYNGLVTGTRAKGIIAICWVLSFAIGLTPMLGWNNCGQPKEGKNHSQGCGEGQVACLFEDVVPMNYMVYFNFFACVLVPLLLMLGVYLRIFLAARRQLKQMESQPLPGERARSTLQKEVHAAKSLAIIVGLFALCWLPLHIINCFTFFCPDCSHAPLWLMYLAIVLSHTNSVVNPFIYAYRIREFRQTFRKIIRSHVLRQQEPFAAAGTSARVLAAHGSDGEQVSLRLNGHPPGVWANGSAPHPERRPNGYALGLVSGGSAQESQGNTGLPDVELLSHELKGVCPEPPGLDDPLAQDGAGVS
B2: K122A: A2aR point mutant (protein, UniProt P29274 1-412, looked up, variant K122A)
Adenosine receptor A2a: MPIMGSSVYITVELAIAVLAILGNVLVCWAVWLNSNLQNVTNYFVVSLAAADIAVGVLAIPFAITISTGFCAACHGCLFIACFVLVLTQSSIFSLLAIAIDRYIAIRIPLRYNGLVTGTRAAGIIAICWVLSFAIGLTPMLGWNNCGQPKEGKNHSQGCGEGQVACLFEDVVPMNYMVYFNFFACVLVPLLLMLGVYLRIFLAARRQLKQMESQPLPGERARSTLQKEVHAAKSLAIIVGLFALCWLPLHIINCFTFFCPDCSHAPLWLMYLAIVLSHTNSVVNPFIYAYRIREFRQTFRKIIRSHVLRQQEPFKAAGTSARVLAAHGSDGEQVSLRLNGHPPGVWANGSAPHPERRPNGYALGLVSGGSAQESQGNTGLPDVELLSHELKGVCPEPPGLDDPLAQDGAGVS
B3: T88A: A2aR point mutant (protein, UniProt P29274 1-412, looked up, variant T88A)
Adenosine receptor A2a: MPIMGSSVYITVELAIAVLAILGNVLVCWAVWLNSNLQNVTNYFVVSLAAADIAVGVLAIPFAITISTGFCAACHGCLFIACFVLVLAQSSIFSLLAIAIDRYIAIRIPLRYNGLVTGTRAKGIIAICWVLSFAIGLTPMLGWNNCGQPKEGKNHSQGCGEGQVACLFEDVVPMNYMVYFNFFACVLVPLLLMLGVYLRIFLAARRQLKQMESQPLPGERARSTLQKEVHAAKSLAIIVGLFALCWLPLHIINCFTFFCPDCSHAPLWLMYLAIVLSHTNSVVNPFIYAYRIREFRQTFRKIIRSHVLRQQEPFKAAGTSARVLAAHGSDGEQVSLRLNGHPPGVWANGSAPHPERRPNGYALGLVSGGSAQESQGNTGLPDVELLSHELKGVCPEPPGLDDPLAQDGAGVS
B4: H75A: A2aR point mutant (protein, UniProt P29274 1-412, looked up, variant H75A)
Adenosine receptor A2a: MPIMGSSVYITVELAIAVLAILGNVLVCWAVWLNSNLQNVTNYFVVSLAAADIAVGVLAIPFAITISTGFCAACAGCLFIACFVLVLTQSSIFSLLAIAIDRYIAIRIPLRYNGLVTGTRAKGIIAICWVLSFAIGLTPMLGWNNCGQPKEGKNHSQGCGEGQVACLFEDVVPMNYMVYFNFFACVLVPLLLMLGVYLRIFLAARRQLKQMESQPLPGERARSTLQKEVHAAKSLAIIVGLFALCWLPLHIINCFTFFCPDCSHAPLWLMYLAIVLSHTNSVVNPFIYAYRIREFRQTFRKIIRSHVLRQQEPFKAAGTSARVLAAHGSDGEQVSLRLNGHPPGVWANGSAPHPERRPNGYALGLVSGGSAQESQGNTGLPDVELLSHELKGVCPEPPGLDDPLAQDGAGVS
B5: T119A: A2aR point mutant (protein, UniProt P29274 1-412, looked up, variant T119A)
Adenosine receptor A2a: MPIMGSSVYITVELAIAVLAILGNVLVCWAVWLNSNLQNVTNYFVVSLAAADIAVGVLAIPFAITISTGFCAACHGCLFIACFVLVLTQSSIFSLLAIAIDRYIAIRIPLRYNGLVTGARAKGIIAICWVLSFAIGLTPMLGWNNCGQPKEGKNHSQGCGEGQVACLFEDVVPMNYMVYFNFFACVLVPLLLMLGVYLRIFLAARRQLKQMESQPLPGERARSTLQKEVHAAKSLAIIVGLFALCWLPLHIINCFTFFCPDCSHAPLWLMYLAIVLSHTNSVVNPFIYAYRIREFRQTFRKIIRSHVLRQQEPFKAAGTSARVLAAHGSDGEQVSLRLNGHPPGVWANGSAPHPERRPNGYALGLVSGGSAQESQGNTGLPDVELLSHELKGVCPEPPGLDDPLAQDGAGVS
B6: A54L: A2aR point mutant (protein, UniProt P29274 1-412, looked up, variant A54L)
Adenosine receptor A2a: MPIMGSSVYITVELAIAVLAILGNVLVCWAVWLNSNLQNVTNYFVVSLAAADILVGVLAIPFAITISTGFCAACHGCLFIACFVLVLTQSSIFSLLAIAIDRYIAIRIPLRYNGLVTGTRAKGIIAICWVLSFAIGLTPMLGWNNCGQPKEGKNHSQGCGEGQVACLFEDVVPMNYMVYFNFFACVLVPLLLMLGVYLRIFLAARRQLKQMESQPLPGERARSTLQKEVHAAKSLAIIVGLFALCWLPLHIINCFTFFCPDCSHAPLWLMYLAIVLSHTNSVVNPFIYAYRIREFRQTFRKIIRSHVLRQQEPFKAAGTSARVLAAHGSDGEQVSLRLNGHPPGVWANGSAPHPERRPNGYALGLVSGGSAQESQGNTGLPDVELLSHELKGVCPEPPGLDDPLAQDGAGVS
B7: G114 A: A2aR point mutant (protein, UniProt P29274 1-412, looked up, variant G114A)
Adenosine receptor A2a: MPIMGSSVYITVELAIAVLAILGNVLVCWAVWLNSNLQNVTNYFVVSLAAADIAVGVLAIPFAITISTGFCAACHGCLFIACFVLVLTQSSIFSLLAIAIDRYIAIRIPLRYNALVTGTRAKGIIAICWVLSFAIGLTPMLGWNNCGQPKEGKNHSQGCGEGQVACLFEDVVPMNYMVYFNFFACVLVPLLLMLGVYLRIFLAARRQLKQMESQPLPGERARSTLQKEVHAAKSLAIIVGLFALCWLPLHIINCFTFFCPDCSHAPLWLMYLAIVLSHTNSVVNPFIYAYRIREFRQTFRKIIRSHVLRQQEPFKAAGTSARVLAAHGSDGEQVSLRLNGHPPGVWANGSAPHPERRPNGYALGLVSGGSAQESQGNTGLPDVELLSHELKGVCPEPPGLDDPLAQDGAGVS
B8: G123A: A2aR point mutant (protein, UniProt P29274 1-412, looked up, variant G123A)
Adenosine receptor A2a: MPIMGSSVYITVELAIAVLAILGNVLVCWAVWLNSNLQNVTNYFVVSLAAADIAVGVLAIPFAITISTGFCAACHGCLFIACFVLVLTQSSIFSLLAIAIDRYIAIRIPLRYNGLVTGTRAKAIIAICWVLSFAIGLTPMLGWNNCGQPKEGKNHSQGCGEGQVACLFEDVVPMNYMVYFNFFACVLVPLLLMLGVYLRIFLAARRQLKQMESQPLPGERARSTLQKEVHAAKSLAIIVGLFALCWLPLHIINCFTFFCPDCSHAPLWLMYLAIVLSHTNSVVNPFIYAYRIREFRQTFRKIIRSHVLRQQEPFKAAGTSARVLAAHGSDGEQVSLRLNGHPPGVWANGSAPHPERRPNGYALGLVSGGSAQESQGNTGLPDVELLSHELKGVCPEPPGLDDPLAQDGAGVS
B9: P149A: A2aR point mutant (protein, UniProt P29274 1-412, looked up, variant P149A)
Adenosine receptor A2a: MPIMGSSVYITVELAIAVLAILGNVLVCWAVWLNSNLQNVTNYFVVSLAAADIAVGVLAIPFAITISTGFCAACHGCLFIACFVLVLTQSSIFSLLAIAIDRYIAIRIPLRYNGLVTGTRAKGIIAICWVLSFAIGLTPMLGWNNCGQAKEGKNHSQGCGEGQVACLFEDVVPMNYMVYFNFFACVLVPLLLMLGVYLRIFLAARRQLKQMESQPLPGERARSTLQKEVHAAKSLAIIVGLFALCWLPLHIINCFTFFCPDCSHAPLWLMYLAIVLSHTNSVVNPFIYAYRIREFRQTFRKIIRSHVLRQQEPFKAAGTSARVLAAHGSDGEQVSLRLNGHPPGVWANGSAPHPERRPNGYALGLVSGGSAQESQGNTGLPDVELLSHELKGVCPEPPGLDDPLAQDGAGVS
B10: V57A: A2aR point mutant (protein, UniProt P29274 1-412, looked up, variant V57A)
Adenosine receptor A2a: MPIMGSSVYITVELAIAVLAILGNVLVCWAVWLNSNLQNVTNYFVVSLAAADIAVGALAIPFAITISTGFCAACHGCLFIACFVLVLTQSSIFSLLAIAIDRYIAIRIPLRYNGLVTGTRAKGIIAICWVLSFAIGLTPMLGWNNCGQPKEGKNHSQGCGEGQVACLFEDVVPMNYMVYFNFFACVLVPLLLMLGVYLRIFLAARRQLKQMESQPLPGERARSTLQKEVHAAKSLAIIVGLFALCWLPLHIINCFTFFCPDCSHAPLWLMYLAIVLSHTNSVVNPFIYAYRIREFRQTFRKIIRSHVLRQQEPFKAAGTSARVLAAHGSDGEQVSLRLNGHPPGVWANGSAPHPERRPNGYALGLVSGGSAQESQGNTGLPDVELLSHELKGVCPEPPGLDDPLAQDGAGVS
B11: Rant17: A2aR mutant A54L+K122A+L235A (protein, UniProt P29274 1-412, looked up, variant A54L K122A L235A)
Adenosine receptor A2a: MPIMGSSVYITVELAIAVLAILGNVLVCWAVWLNSNLQNVTNYFVVSLAAADILVGVLAIPFAITISTGFCAACHGCLFIACFVLVLTQSSIFSLLAIAIDRYIAIRIPLRYNGLVTGTRAAGIIAICWVLSFAIGLTPMLGWNNCGQPKEGKNHSQGCGEGQVACLFEDVVPMNYMVYFNFFACVLVPLLLMLGVYLRIFLAARRQLKQMESQPLPGERARSTLQKEVHAAKSAAIIVGLFALCWLPLHIINCFTFFCPDCSHAPLWLMYLAIVLSHTNSVVNPFIYAYRIREFRQTFRKIIRSHVLRQQEPFKAAGTSARVLAAHGSDGEQVSLRLNGHPPGVWANGSAPHPERRPNGYALGLVSGGSAQESQGNTGLPDVELLSHELKGVCPEPPGLDDPLAQDGAGVS

Here are results for eleven molecules from patent publication US8785135B2, “Mutant G-protein coupled receptors and methods for selecting them” (Heptares Therapeutics Limited, priority 2007, dated 2014).

The nature of the first data set: Thermostability of A2aR and mutants (ligand binding after or during heating). The data set is classed as physicochemical. Particulars: Ligand(−) format, binding after the heating step. An excerpt:
FIG. 12 Flow chart showing the two different assay formats of ligand (+) and ligand (−) used to determine receptor thermostability.
• 1. 315 site-directed mutants made between residues 2-316 of A2aR. • 2. All of these mutants have been assayed for thermostability using an assay measuring agonist and antagonist binding after the heating step (Ligand(−) format as described in FIG. 12). • a. […] Mutations have been combined to generate mutants in a putative antagonist conformation. Wildtype A2aR has a Tm of 31° C. with ZM241385 bound. • a. Rant17 A54L+K122A+L235A Tm 48° C. (ZM241385 bound) • b. Rant19 A54L, T88A, V239A+A204L Tm 47° C. (ZM241385 bound) • c. Rant21 A54L, T88A, V239A+K122A Tm 49° C. (ZM241385 bound) • 4. Mutations from the agonist screen have been combined, but have led to only a very low level of improvement in Tm of +2° C.
Consider B1, for which the “thermostability measured with 3H-NECA (agonist)” value was “improved thermostability”.

On to B2, for which the “thermostability assayed with 3H-ZM241385 (antagonist)” value (“thermostability assayed” below) was “improved thermostability”.

B3: the “thermostability assayed” value is given as “improved thermostability”.

B4: the “thermostability assayed” value is “improved thermostability”.

With B5, the “thermostability assayed” value is listed as “improved thermostability”.

On to B6, for which the “thermostability assayed” value was “improved thermostability”.

B7: the “thermostability assayed” value was “improved thermostability” and the “thermostability measured with 3H-NECA (agonist)” value was “improved thermostability”.

As for B8, the “thermostability assayed” value is “improved thermostability”.

For the molecule B9, the “thermostability assayed” value is recorded as “improved thermostability”.

In the case of B10, the “thermostability assayed” value was “improved thermostability”.

The data set is the same for the next values; noted with them: ZM241385 bound.
For B11, the Tm was found to be 48 °C.
